The values that follow come from the supplement of paper PMC10567573.

B1: C10orf62 (parent)
chain: GHSHHSHHGHPSHQSHSLPNRRH
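Note: lentivirally expressed fusions sorted by FACS into six bins by GFP to DsRed ratio, PSI derived from sequencing read proportions per bin multiplied by bin number.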

The variants in the series derive from B1. Briefly: protein stability index of a GFP-peptide fusion (GPS, HEK-293T) (PSI 1-6); higher = more stable. Particulars: c terminus: native.
Take GHSHHSHHGHPSYQSHSLPNRRH [H13Y]: the protein stability index was 3.26.
With GHSHHSHHGHPSPQSHSLPNRRH [H13P] the figure was 2.47.
For GHSHHSHHGHPSSQSHSLPNRRH [H13S] the value was 2.65; for GHSHHSHHGHPSRQSHSLPNRRH [H13R], 2.55; for GHSHHSHHGHPSFQSHSLPNRRH [H13F], 3.57.
For GHSHHSHHGHPSMQSHSLPNRRH [H13M] the value was 5.42; for GHSHHSHHGHPSEQSHSLPNRRH [H13E], 2.68; for GHSHHSHHGHPSKQSHSLPNRRH [H13K], 2.51.
For the variant GHSHHSHHGHPSCQSHSLPNRRH [H13C], the protein stability index was 3.33.
For GHSHHSHHGHPSLQSHSLPNRRH [H13L] the value was 3.34.
GHSHHSHHGHPSDQSHSLPNRRH [H13D]: the protein stability index was 2.86.
For GHSHHSHHGHPSQQSHSLPNRRH [H13Q] the value was 2.12; for GHSHHSHHGHPSWQSHSLPNRRH [H13W], 2.6.
As to GHSHHSHHGHPSAQSHSLPNRRH [H13A], the protein stability index is 3.6.
With GHSHHSHHGHPSTQSHSLPNRRH [H13T] the figure was 3.08; with GHSHHSDHGHPSHQSHSLPNRRH [H7D], 3.05; with GHSHHSMHGHPSHQSHSLPNRRH [H7M], 1.87.
For GHSHHSNHGHPSHQSHSLPNRRH [H7N] the value was 2.44; for GHSHHSTHGHPSHQSHSLPNRRH [H7T], 2.66.
With GHSHHSKHGHPSHQSHSLPNRRH [H7K] the figure was 2.14.
For GHSHHSEHGHPSHQSHSLPNRRH [H7E], the protein stability index stood at 2.1.
For GHSHHSRHGHPSHQSHSLPNRRH [H7R] the value was 3.22; for GHSHHSLHGHPSHQSHSLPNRRH [H7L], 3.37; for GHSHHSPHGHPSHQSHSLPNRRH [H7P], 4.21.
Consider GHSHHSCHGHPSHQSHSLPNRRH [H7C], for which the protein stability index stood at 2.65.
With GHSHHSAHGHPSHQSHSLPNRRH [H7A] the figure was 2.72; with GHSHHSGHGHPSHQSHSLPNRRH [H7G], 1.83.
With GHSHHSSHGHPSHQSHSLPNRRH [H7S] the figure was 3.47.
With GHSHHSWHGHPSHQSHSLPNRRH [H7W] the figure was 2.41.
As to GHSHHSHRGHPSHQSHSLPNRRH [H8R], the protein stability index worked out at 2.72.
With GHSHHSHCGHPSHQSHSLPNRRH [H8C] the figure was 4; with GHSHHSHKGHPSHQSHSLPNRRH [H8K], 3.13; with GHSHHSHQGHPSHQSHSLPNRRH [H8Q], 2.84.
For GHSHHSHYGHPSHQSHSLPNRRH [H8Y], the protein stability index is 3.29.
With GHSHHSHTGHPSHQSHSLPNRRH [H8T] the figure was 3.37.
In the case of GHSHHSHMGHPSHQSHSLPNRRH [H8M], the protein stability index is 2.06.
Take GHSHHSHGGHPSHQSHSLPNRRH [H8G]: the protein stability index was determined as 2.46.
With GHSHHSHEGHPSHQSHSLPNRRH [H8E] the figure was 2.42; with GHSHHSHIGHPSHQSHSLPNRRH [H8I], 3.3.
Turning to GHSHHSHDGHPSHQSHSLPNRRH [H8D], the protein stability index was 1.96.
As to GHSHHSHFGHPSHQSHSLPNRRH [H8F], the protein stability index stood at 3.5.
For GHSHHSHNGHPSHQSHSLPNRRH [H8N] the value was 4.02.
With GHSHHSHAGHPSHQSHSLPNRRH [H8A] the figure was 5.15; with GHSHHSHPGHPSHQSHSLPNRRH [H8P], 1.38.
Consider GHSHHSHSGHPSHQSHSLPNRRH [H8S], for which the protein stability index came out at 2.96.
For GHSHHSHHQHPSHQSHSLPNRRH [G9Q] the value was 2.3; for GHSHHSHHHHPSHQSHSLPNRRH [G9H], 3.58; for GHSHHSHHPHPSHQSHSLPNRRH [G9P], 1.91.
For GHSHHSHHDHPSHQSHSLPNRRH [G9D] the value was 2.41; for GHSHHSHHLHPSHQSHSLPNRRH [G9L], 2.26; for GHSHHSHHMHPSHQSHSLPNRRH [G9M], 3.76.
With GHSHHSHHTHPSHQSHSLPNRRH [G9T] the figure was 1.87.
With GHSHHSHHNHPSHQSHSLPNRRH [G9N], the protein stability index turned out to be 2.82.
For GHSHHSHHIHPSHQSHSLPNRRH [G9I] the value was 4.14; for GHSHHSHHEHPSHQSHSLPNRRH [G9E], 3.5; for GHSHHSHHCHPSHQSHSLPNRRH [G9C], 4.56.
With GHSHHSHHAHPSHQSHSLPNRRH [G9A] the figure was 2.81.
For GHSHHSHHWHPSHQSHSLPNRRH [G9W] the value was 3.1; for GHSHHSHHVHPSHQSHSLPNRRH [G9V], 3.15.
For GHSHHSHHKHPSHQSHSLPNRRH [G9K], the protein stability index was found to be 3.76.
With GHSHHSHHSHPSHQSHSLPNRRH [G9S] the figure was 2.37; with GHSHHSHHFHPSHQSHSLPNRRH [G9F], 3.35.
With GHSHHSHHGHPRHQSHSLPNRRH [S12R] the figure was 4.62.
With GHSHHSHHGHPYHQSHSLPNRRH [S12Y] the figure was 2.21.
GHSHHSHHGHPLHQSHSLPNRRH [S12L]: the protein stability index was 2.34.
For GHSHHSHHGHPDHQSHSLPNRRH [S12D], the protein stability index is 2.98.
With GHSHHSHHGHPAHQSHSLPNRRH [S12A] the figure was 2.22; with GHSHHSHHGHPEHQSHSLPNRRH [S12E], 3; with GHSHHSHHGHPGHQSHSLPNRRH [S12G], 2.75.
For GHSHHSHHGHPNHQSHSLPNRRH [S12N] the value was 3.1; for GHSHHSHHGHPTHQSHSLPNRRH [S12T], 2.57; for GHSHHSHHGHPQHQSHSLPNRRH [S12Q], 1.6.
For the variant GHSHHSHHGHPIHQSHSLPNRRH [S12I], the protein stability index was found to be 4.18.
With GHSHHSHHGHPMHQSHSLPNRRH [S12M], the protein stability index is 2.27.
For GHSHHSHHGHPWHQSHSLPNRRH [S12W] the value was 3.49; for GHSHHSHHGHPPHQSHSLPNRRH [S12P], 3.31; for GHSHHSHHGHPSHQSHCLPNRRH [S17C], 2.65.
With GHSHHSHHGHPSHQSHGLPNRRH [S17G] the figure was 3.77; with GHSHHSHHGHPSHQSHFLPNRRH [S17F], 1.8; with GHSHHSHHGHPSHQSHALPNRRH [S17A], 2.08.
For GHSHHSHHGHPSHQSHDLPNRRH [S17D] the value was 2.43; for GHSHHSHHGHPSHQSHELPNRRH [S17E], 2.14; for GHSHHSHHGHPSHQSHILPNRRH [S17I], 2.64.
Consider GHSHHSHHGHDSHQSHSLPNRRH [P11D], for which the protein stability index amounted to 2.88.
As for GHSHHSHHGHASHQSHSLPNRRH [P11A], the protein stability index came to 3.2.
For GHSHHSHHGHKSHQSHSLPNRRH [P11K] the value was 4.06.
On to GHSHHSHHGHLSHQSHSLPNRRH [P11L], for which the protein stability index is 3.12.
For GHSHHSHHGHNSHQSHSLPNRRH [P11N] the value was 2.98.
For GHSHHSHHGHISHQSHSLPNRRH [P11I] the value was 4.55.
For GHSHHSHHGHRSHQSHSLPNRRH [P11R] the value was 3.75.
For the variant GHSHHSHHGHFSHQSHSLPNRRH [P11F], the protein stability index worked out at 2.29.
With GHSHHSHHGHWSHQSHSLPNRRH [P11W] the figure was 2.03.
For the variant GHSHHSHHGHGSHQSHSLPNRRH [P11G], the protein stability index was found to be 3.85.
For GHSHHSHHGHQSHQSHSLPNRRH [P11Q] the value was 3.94; for GHSHHSHHGHCSHQSHSLPNRRH [P11C], 4.84.
For GHSHHSHHGHTSHQSHSLPNRRH [P11T] the value was 2.56.
For GHSHHSHHGHVSHQSHSLPNRRH [P11V] the value was 2.5.
